Experimental data taken from patent publication US20190300618A1 (Merck Sharp & Dohme, published 2019).
Substitutions are numbered along the chain they refer to.

Experiments:
Test in all cases: flow cytometry, CHO-K1; sub-column 2 of 2
W13A = target: T1, W13A
T1 construct: also called hCD27 W13A
T1 receptor: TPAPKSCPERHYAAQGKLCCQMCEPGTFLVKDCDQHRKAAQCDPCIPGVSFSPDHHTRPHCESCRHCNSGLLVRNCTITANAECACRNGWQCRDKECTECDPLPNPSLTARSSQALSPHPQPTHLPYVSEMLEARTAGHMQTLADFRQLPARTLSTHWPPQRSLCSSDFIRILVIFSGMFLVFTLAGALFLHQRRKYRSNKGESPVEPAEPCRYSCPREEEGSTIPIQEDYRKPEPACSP

G16A = target: T2, G16A
T2 construct: also called hCD27 G16A
T2 receptor: T1 receptor with A13W, G16A

K17A = target: T3, K17A
T3 construct: also called hCD27 K17A
T3 receptor: T1 receptor with A13W, K17A

F28A = target: T4, F28A
T4 construct: also called hCD27 F28A
T4 receptor: T1 receptor with A13W, F28A

K31A = target: T5, K31A
T5 construct: also called hCD27 K31A
T5 receptor: T1 receptor with A13W, K31A

H36A = target: T6, H36A
T6 construct: also called hCD27 H36A
T6 receptor: T1 receptor with A13W, H36A

Q41A = target: T7, Q41A
T7 construct: also called hCD27 Q41A
T7 receptor: T1 receptor with A13W, Q41A

V49A = target: T8, V49A
T8 construct: also called hCD27 V49A
T8 receptor: T1 receptor with A13W, V49A

R87A = target: T9, R87A
T9 construct: also called hCD27 R87A
T9 receptor: T1 receptor with A13W, R87A

Q91A = target: T10, Q91A
T10 construct: also called hCD27 Q91A
T10 receptor: T1 receptor with A13W, Q91A

For 1A4 (mouse IgG1) (antibody), the % of WT hCD27 binding (geo mean FITC) (W13A) was 93.4%, the % of WT hCD27 binding (geo mean FITC) (G16A) was 97.3% and the % of WT hCD27 binding (geo mean FITC) (K17A) was 6.8%. The % of WT hCD27 binding (geo mean FITC) (F28A) was 60%, the % of WT hCD27 binding (geo mean FITC) (K31A) was 138% and the % of WT hCD27 binding (geo mean FITC) (H36A) was 85.2%. The % of WT hCD27 binding (geo mean FITC) (Q41A) was 76.1%, the % of WT hCD27 binding (geo mean FITC) (V49A) was 97% and the % of WT hCD27 binding (geo mean FITC) (R87A) was 108%. It also gave a % of WT hCD27 binding (geo mean FITC) (Q91A) of 120%.

Work on 9F4 (mouse IgG2a) (antibody) yielded a % of WT hCD27 binding (geo mean FITC) (W13A) of 86.5%, a % of WT hCD27 binding (geo mean FITC) (G16A) of 102% and a % of WT hCD27 binding (geo mean FITC) (K17A) of 106%. The % of WT hCD27 binding (geo mean FITC) (F28A) was 58.2%, the % of WT hCD27 binding (geo mean FITC) (K31A) was 133% and the % of WT hCD27 binding (geo mean FITC) (H36A) was 66.5%. The % of WT hCD27 binding (geo mean FITC) (Q41A) was 71.3%, the % of WT hCD27 binding (geo mean FITC) (V49A) was 92.1% and the % of WT hCD27 binding (geo mean FITC) (R87A) was 98.8%. For the same molecule, the % of WT hCD27 binding (geo mean FITC) (Q91A) was 111%.

B1: Antibody hCD27.131A (mouse parental 131A) (antibody, V domains shown)
VH: QIQLVQSGPELKKPGETVKISCKASGYTFTNYGMNWVKQAPGKGLKWMGWINTNTGEPTYAEEFKGRFAFSLETSATTAYLQINNLKNEDTATYFCAREGDAMDYWGQGTSVTVSS
VL: QIVLTQSPAIMSASPGEKVTMTCSASSSVSYMHWYQQKSGTSPKRWIYDTSKLASGVPARFSGSGSGTSYSLTISSMEAEDAATYYCQQWNSYPFTFGSGTKLEIK
notes: mouse IgG1; also called mouse hCD27.131A
B1 was tested, and the “% of WT hCD27 binding (geo mean FITC)” value (W13A) was 88.6%, the “% of WT hCD27 binding (geo mean FITC)” value (G16A) was 108% and the “% of WT hCD27 binding (geo mean FITC)” value (K17A) was 126%. The “% of WT hCD27 binding (geo mean FITC)” value (F28A) was 57.1%, the “% of WT hCD27 binding (geo mean FITC)” value (K31A) was 134% and the “% of WT hCD27 binding (geo mean FITC)” value (H36A) was 10.8%. The “% of WT hCD27 binding (geo mean FITC)” value (Q41A) was 80.5%, the “% of WT hCD27 binding (geo mean FITC)” value (V49A) was 99.8% and the “% of WT hCD27 binding (geo mean FITC)” value (R87A) was 111%. The “% of WT hCD27 binding (geo mean FITC)” value (Q91A) was 136%.
